According to patent US20060115810A1:
pKd: −log10 of the molar value.

Target: extracellular region of the human tumor antigen c-erbB-2 (human) (UniProt P04626)
Experiment: method not given

pKd: 9.80
Substance: scFv C6.5
